Source: patent US20090155873A1, “BIOFUEL PRODUCTION” (BIO ARCHITECTURE LAB, INC., priority 2007, published 2009)

Key:
[1] = NADH Production Assay (oxidation of 4-octanol); assay type: biochemical; conditions: NAD+, 30° C., FIG. 30A
Protocol: Various secondary alcohol dehydrogenases (2ADHs) were isolated from Pseudomonas putida KT2440, Pseudomonas fluorescens Pf-5, and Klebsiella pneumoniae MGH 78578. All vectors were transformed in BL21(DE3) competent cells and expression of the genes encoding the proteins of interest was induced with IPTG (via the T7 promoter). The cells were lysed, proteins were extracted and then purified on Ni-NTA columns. Final protein concentration in the Ni-NTA eluate was diluted to 0.15 mg/mL prior to assays.
[…] consumption and production assays were performed using a THERMOmax microplate reader in the kinetic mode, monitoring the NADPH absorbance peak at 340 nm until the reaction reached equilibrium. […] These reaction conditions are found in Table 4 below.

[2] = Sequential reaction of diol dehydrogenase and diol dehydratase on butyroin (GC-MS); assay type: biochemical; conditions: 37° C., 40 hours, NADH, coenzyme B12, GC-MS, FIGS. 26-27
Protocol: Diol dehydrogenase ddh from Klebsiella pneumoniae MGH 78578 and diol dehydratase pduCDE from Klebsiella pneumoniae MGH 78578 were cloned into a bacterial expression vector and expressed and purified on a Ni-NTA column, as described in Example X except that 1 mM of 1,2-propanediol was added at all time during the expression and purification of diol dehydratase. The large, medium, and small subunits of the pduCDE polypeptide are encoded by the nucleotide sequences of SEQ ID NOs:103, 105, and 107, respectively, and the polypeptide sequence are set forth in SEQ ID NOs: 104, 106, and 108, respectively.
The ddh3 and pduCDE polypeptides were incubated with butyroin and their appropriate cofactors, then assayed using gas chromatography-mass spectrometry (GC-MS) for their ability to perform sequential reactions resulting in the product 4-octanone. The reaction mixture was incubated at 37° C. for 40 hours in a 0.6 mL eppendorf tube with minimal head space. The reaction product was extracted with an equivalent volume of ethyl acetate, stored in a glass vial, and sent to Thermo Fischer Scientific Instruments Division for compositional analysis by GC-MS.

[3] = TBA assay for secreted alginate lyase; assay type: cell-based; conditions: BL21 cells, LB+2% alginate+0.1 mM IPTG, overnight culture media, FIG. 47
Protocol: The Vs24254 (SEQ ID NO: 32) region of Vibro spendidus encodes a functional external alginate lyase. BL21 cells expressing Vs24254 from the pET28 vector were capable of breaking down alginate in the growth medium. […] This assay was performed by spinning down an overnight culture grown on the above mentioned media. The media was then mixed in a 1:1 ratio with 0.8% thiobarbituric acid (TBA), heated for 10 min at 99 degrees Celsius, and assayed for pink coloration. […] Wildtype E. coli cells not expressing any recombinant proteins show the same coloration as the negative control Vs24259 (data not shown).

[4] = Kinetic testing of oxidation and reduction reactions with 2ADH-16; assay type: biochemical; conditions: 0.04 mg/mL enzyme, pH 6.5(red) or 9.0(ox), 25 C, FIGS. 35 and 36
Protocol: Similar to above, kinetic testing for both oxidation and reduction reactions was performed on various substrates using 2ADH-16. The conditions for these studies were as follows: 0.04 mg/mL enzyme, 0.25 mg/mL cofactor, 20 mM Tris HCl Buffer pH 6.5(red) or 9.0(ox), T=25 C, 100 uL total volume was used.

B1: 2ADH-2: secondary alcohol dehydrogenase isolated from Pseudomonas putida KT2440, SEQ ID NO:112 (protein)
chain: MSMTFSGQVALVTGAGAGIGRATALAFAHEGMKVVVADLDPVGGEATVAQIHAAGGEALFIACDVTRDAEVRQLHERLMAAYGRLDYAFNNAGIEIEQHRLAEGSEAEFDAIMGVNVKGVWLCMKYQLPLLLAQGGGAIVNTASVAGLGAAPKMSIYSASKHAVIGLTKSAAIEYAKKGIRVNAVCPAVIDTDMFRRAYQADPRKAEFAAAMHPVGRIGKVEEIASAVLYLCSDGAAFTTGHCLTVDGGATAI
modifications: Pseudomonas putida KT2440
oxidation of 4-octanol measured by NADH production [1]: catalyzes the oxidation of 4-octanol in the presence of NAD+

B2: ddh3: diol dehydrogenase isolated from Klebsiella pneumoniae MGH78578, SEQ ID NO:102 (protein)
chain: MKKVALVTGAGQGIGKAIALRLVKDGFAVAIADYNDATAKAVASEINQAGGHAVAVKVDVSDRDQVFAAVEQARKTLGGFDVIVNNAGVAPSTPIESITPEIVDKVYNINVKGVIWGIQAAVEAFKKEGHGGKIINACSQAGHVGNPELAVYSSSKFAVRGLTQTAARDLAPLGITVNGYCPGIVKTPMWAEIDRQVSEAAGKPLGYGTAEFAKRITLGRLSEPEDVAACVSYLASPDSDYMTGQSLLIDGGMVFN
modifications: Klebsiella pneumoniae MGH78578
product formed from butyroin by sequential reactions [2]: 4-octanone was produced from butyroin

B3: Vs24254: functional external alginate lyase of Vibrio splendidus, SEQ ID NO:32 (protein, listed as Vibrio splendidus)
chain: MNKPIFVVVLASLTYGCGGSSSSDSSDPSDTNNSGASYGVVAPYDIAKYQNILSSSDLQVSDPNGEEGNKTSEVKDGNFDGYVSDYFYADEETENLIFKMANYKMRSEVREGENFDINEAGVRRSLHAEISLPDIEHVMASSPADHDEVTVLQIHNKGTDESGTGYIPHPLLRVVWEQERDGLTGHYWAVMKNNAIDCSSAADSSDCYATSYNRYDLGEADLDNFTKFDLSVYENTLSIKVNDEVKVDEDITYWQHLLSYFKAGIYNQFENGEATAHFQALRYTTTQVNGSNDWDINDWKLTIPASKDTWYGSGGDSAAELEPERCESSKDLLANDSDVYDSDIGLSYFNTDEGRVHFRADMGYGTSTENSSYIRSELRELYQSSVQPDCSTSDEDTSWYLDDTRTNATSHELTASLRIEDYPNINNQDPKVVLGQIHGWKINQALVKLLWEGESKPVRVILNSDFERNNQDCNHCDPFSVELGTYSASEEWRYTIRANQDGIYLATHDLDGTNTVSHLIPWGQDYTDKDGDTVSLTSDWTSTDIAFYFKAGIYPQFKPDSDYAGEVFDVSFSSLRAEHN
TBA assay result (cleavage of alginate in growth medium) [3]: positive TBA assay result of pink color

B4: Vs24259: putative protein of Vibrio splendidus similar to an alginate lyase, SEQ ID NO:34; negative control (protein, listed as Vibrio splendidus)
chain: MKQITLKTLLASSILLAVGCASTSTPTADFPNNKETGEALLTPVAVSASSHDGNGPDRLVDQDLTTRWSSAGDGEWATLDYGSVQEFDAVQASFSKGNQRQSKFDIQVSVDGESWTTVLENQLSSGKAIGLERFQFEPVVQARYVRYVGHGNTKNGWNSVTGLAAVNCSINACPASHIITSDVVAAEAVIIAEMKAAEKARKDARKDLRSGNFGVAAVYPCETTVECDTRSALPVPTGLPATPVAGNSPSENFDMTHWYLSQPFDHDKNGKPDDVSEWNLANGYQHPEIFYTADDGGLVFKAYVKGVRTSKNTKYARTELREMMRRGDQSISTKGVNKNNWVFSSAPESDLESAAGIDGVLEATLKIDHATTTGNANEVGRFIIGQIHDQNDEPIRLYYRKLPNQETGAVYFAHESQDATKEDFYPLVGDMTAEVGDDGIALGEVFSYRIDVKGNTMTVTLIREGKDDVVQVVDMSNSGYDAGGKYMYFKAGVYNQNISGDLDDYSQATFYQLDVSHDQYKK
TBA assay result (cleavage of alginate in growth medium) [3]: little or no cleavage of the alginate polymer has occurred

B5: 2ADH-16: secondary alcohol dehydrogenase isolated from Klebsiella pneumoniae subsp. pneumoniae MGH 78578, SEQ ID NO:138 (protein)
chain: MTAFHNKSVLVLGGSRGIGAAIVRRFVADGASVVFSYSGSPEAAERLAAETGSTAVQADSADRDAVISLVRDSGPLDVLVVNAGIALFGDALEQDSDAIDRLFHINIHAPYHASVEAARRMPEGGRIIVIGSVNGDRMPLPGMAAYALSKSALQGLARGLARDFGPRGITVNVVQPGPIDTDANPENGPMKELMHSFMAIKRHGRPEEVAGMVAWLAGPEASFVTGAMHTIDGAFGA
modifications: Klebsiella pneumoniae subsp. pneumoniae MGH78578
oxidation and reduction of various substrates [4]: capable of catalyzing both the oxidation and reduction of a wide variety of substrates

B6: pduCDE: diol dehydratase from Klebsiella pneumoniae MGH 78578, subunits SEQ ID NOs:104, 106, 108 (protein)
chain 1: MRSKRFEALAKRPVNQDGFVKEWIEEGFIAMESPNDPKPSIRIVNGAVTELDDKPVEQFDLIDHFIARYGINLARAEEVMAMDSVKLANMLCDPNVKRSDIVPLTTAMTPAKIVEVVSHMNVVEMMMAMQKMRARRTPSQQAHVTNIKDNPVQIAADAAEGAWRGFDEQETTVAVARYAPFNAIALLVGSQVGRPGVLTQCSLEEATELKLGMLGHTCYAETISVYGTEPVFTDGDDTPWSKGFLASSYASRGLKMRFTSGSGSEVQMGYAEGKSMLYLEARCIYITKAAGVQGLQNGSVSCIGVPSAVPSGIRAVLAENLICSALDLECASSNDQTFTHSDMRRTARLLMQFLPGTDFISSGYSAVPNYDNMFAGSNEDAEDFDDYNVIQRDLKVDGGLRPVREEDVIAIRNKAARALQAVFAGMGLPPITDEEVEAATYAHGSKDMPERNIVEDIKFAQEIINKNRNGLEVVKALAKGGFPDVAQDMLNIQKAKLTGDYLHTSAIIVGEGQVLSAVNDVNDYAGPATGYRLQGERWEEIKNIPGALDPNELG
chain 2: MEINETLLRQIIEEVLSEMKSGADKPVSFSAPAASVASAAPVAVAPVSGDSFLTEIGEAKPGTQQDEVIIAVGPAFGLAQTANIVGIPHKNILREVIAGIEEEGIKARVIRCFKSSDVAFVAVEGNRLSGSGISIGIQSKGTTVIHQRGLPPLSNLELFPQAPLLTLETYRQIGKNAARYAKRESPQPVPTLNDQMARPKYQAKSAILHIKETKYVVTGKNPQELRVAL
chain 3: MNTDAIESMVRDVLSRMNSLQDGITPAPAAPTNDTVRQPKVSDYPLATRHPEWVKTATNKTLDDLTLENVLSDRVTAQDMRITPETLRMQAAIAQDAGRDRLAMNFERAAELTAVPDDRILEIYNALRPYRSTQAELLAIADDLEHRYQARLCAAFVREAAGLYIERKKLKGDD
modifications: Klebsiella pneumoniae MGH78578
product formed from butyroin by sequential reactions [2]: 4-octanone was produced from butyroin
